Paper PMC11087797 (2024)

B1: soluble CD94-NKG2C NK cell receptor ectodomains (receptor)
chain 1: KNSFTKLSIEPAFTPGPNIELQKDSDCCSCQEKWVGYRCNCYFISSEQKTWNESRHLCASQKSSLLQLQNTDELDFMSSSQQFYWIGLSYSEEHTAWLWENGSALSQYLFPSFETFNTKNCIAYNPNGNALDESCEDKNRYICKQQLI
chain 2: not shown
B2: soluble CD94-NKG2A NK cell receptor ectodomains (receptor)
chain 1: B1 chain 1
chain 2: not shown

Key:
Assay in all cases: SPR; peptide …
LA34(3-11)-HLA-E*01:03 = biological target: LA34(3-11)-HLA-E*01:03
LCw3(3-11)-HLA-E*01:03 = biological target: LCw3(3-11)-HLA-E*01:03
LA1(3-11)-HLA-E*01:03 = biological target: LA1(3-11)-HLA-E*01:03
LB7(3-11)-HLA-E*01:03 = biological target: LB7(3-11)-HLA-E*01:03
LA80(3-11)-HLA-E*01:03 = biological target: LA80(3-11)-HLA-E*01:03

| Binder | Kd (LA34(3-11)-HLA-E*01:03) [µM] | Kd (LCw3(3-11)-HLA-E*01:03) [µM] | Kd (LA1(3-11)-HLA-E*01:03) [µM] | Kd (LB7(3-11)-HLA-E*01:03) [µM] | Kd (LA80(3-11)-HLA-E*01:03) [µM] |
| --- | --- | --- | --- | --- | --- |
| B1 | 13.5 | 22 | 11.3 | 25.5 | 42.8 |
| B2 | 1.8 | 1.5 | 1.5 | 3.3 | 2.1 |
